B1: h-(Aic)-LVFFA-oh (peptide)
peptide: H-[Aic′]LVFFA-OH
SMILES: CC(C)C[C@H](NC(=O)CC[C@@H](C)[C@H]1CC[C@H]2[C@@H]3[C@H](O)C[C@@H]4C[C@@H](OCCN)CC[C@]4(C)[C@H]3C[C@H](O)[C@]12C)C(=O)N[C@H](C(=O)N[C@@H](Cc1ccccc1)C(=O)N[C@@H](Cc1ccccc1)C(=O)N[C@@H](C)C(=O)O)C(C)C
B2: CA-AVAFA-oh (peptide)
peptide: Cholyl-AVAFA-OH
SMILES: CC(C)[C@H](NC(=O)[C@H](C)NC(=O)CC[C@@H](C)[C@H]1CC[C@H]2[C@@H]3[C@H](O)C[C@@H]4C[C@H](O)CC[C@]4(C)[C@H]3C[C@H](O)[C@]12C)C(=O)N[C@@H](C)C(=O)N[C@@H](Cc1ccccc1)C(=O)N[C@@H](C)C(=O)O
B3: CA-GFF-oh (peptide)
peptide: Cholyl-Gly-Phe-Phe-OH
SMILES: C[C@H](CCC(=O)NCC(=O)N[C@@H](Cc1ccccc1)C(=O)N[C@@H](Cc1ccccc1)C(=O)O)[C@H]1CC[C@H]2[C@@H]3[C@H](O)C[C@@H]4C[C@H](O)CC[C@]4(C)[C@H]3C[C@H](O)[C@]12C
B4: CA-LVFAA-oh (peptide)
peptide: Cholyl-LVFAA-OH
SMILES: CC(C)C[C@H](NC(=O)CC[C@@H](C)[C@H]1CC[C@H]2[C@@H]3[C@H](O)C[C@@H]4C[C@H](O)CC[C@]4(C)[C@H]3C[C@H](O)[C@]12C)C(=O)N[C@H](C(=O)N[C@@H](Cc1ccccc1)C(=O)N[C@@H](C)C(=O)N[C@@H](C)C(=O)O)C(C)C
B5: CA-FFV-oh (peptide)
peptide: Cholyl-Phe-Phe-Val-OH
SMILES: CC(C)[C@H](NC(=O)[C@H](Cc1ccccc1)NC(=O)[C@H](Cc1ccccc1)NC(=O)CC[C@@H](C)[C@H]1CC[C@H]2[C@@H]3[C@H](O)C[C@@H]4C[C@H](O)CC[C@]4(C)[C@H]3C[C@H](O)[C@]12C)C(=O)O
B6: CA-FFVLA-oh (peptide)
peptide: Cholyl-FFVLA-OH
SMILES: CC(C)C[C@H](NC(=O)[C@@H](NC(=O)[C@H](Cc1ccccc1)NC(=O)[C@H](Cc1ccccc1)NC(=O)CC[C@@H](C)[C@H]1CC[C@H]2[C@@H]3[C@H](O)C[C@@H]4C[C@H](O)CC[C@]4(C)[C@H]3C[C@H](O)[C@]12C)C(C)C)C(=O)N[C@@H](C)C(=O)O
B7: CA-FFVL-oh (peptide)
peptide: Cholyl-FFVL-OH
SMILES: CC(C)C[C@H](NC(=O)[C@@H](NC(=O)[C@H](Cc1ccccc1)NC(=O)[C@H](Cc1ccccc1)NC(=O)CC[C@@H](C)[C@H]1CC[C@H]2[C@@H]3[C@H](O)C[C@@H]4C[C@H](O)CC[C@]4(C)[C@H]3C[C@H](O)[C@]12C)C(C)C)C(=O)O
B8: h-DDIII(N-Me-Val)DLL(Adp)-HQKLVFF-oh (peptide)
peptide: H-DDIII[NMeV]DLL[Adp]HQKLVFF-OH
SMILES: CC[C@H](C)[C@H](NC(=O)[C@H](CC(=O)O)NC(=O)[C@@H](N)CC(=O)O)C(=O)N[C@H](C(=O)N[C@H](C(=O)N(C)[C@H](C(=O)N[C@@H](CC(=O)O)C(=O)N[C@@H](CC(C)C)C(=O)N[C@@H](CC(C)C)C(=O)NCCc1cccc2c1oc1c(CCC(=O)N[C@@H](Cc3c[nH]cn3)C(=O)N[C@@H](CCC(N)=O)C(=O)N[C@@H](CCCCN)C(=O)N[C@@H](CC(C)C)C(=O)N[C@H](C(=O)N[C@@H](Cc3ccccc3)C(=O)N[C@@H](Cc3ccccc3)C(=O)O)C(C)C)cccc12)C(C)C)[C@@H](C)CC)[C@@H](C)CC
B9: h-DDII(N-Me-Leu)VEH(Adp)-LKLVFF-oh (peptide)
peptide: H-DDII[NMeL]VEH[Adp]LKLVFF-OH
SMILES: CC[C@H](C)[C@H](NC(=O)[C@H](CC(=O)O)NC(=O)[C@@H](N)CC(=O)O)C(=O)N[C@H](C(=O)N(C)[C@@H](CC(C)C)C(=O)N[C@H](C(=O)N[C@@H](CCC(=O)O)C(=O)N[C@@H](Cc1c[nH]cn1)C(=O)NCCc1cccc2c1oc1c(CCC(=O)N[C@@H](CC(C)C)C(=O)N[C@@H](CCCCN)C(=O)N[C@@H](CC(C)C)C(=O)N[C@H](C(=O)N[C@@H](Cc3ccccc3)C(=O)N[C@@H](Cc3ccccc3)C(=O)O)C(C)C)cccc12)C(C)C)[C@@H](C)CC

Numbered stars: 1 amine (or outer) side, 2 acyl side, 3 side chain; on linkers, the order of the positions; unused ones are H or OH. Square brackets hold non-standard residues; d marks the D form. Primed or numbered codes have the meaning given here. Ends that are not written are not given here. * marks the point of attachment. Aic′ = 3-(O-aminoethyl-iso)-cholyl, C[C@H](CCC(=O)*)[C@H]1CC[C@H]2[C@@H]3[C@H](O)C[C@@H]4C[C@@H](OCCN)CC[C@]4(C)[C@H]3C[C@H](O)[C@]12C; Cholyl = C[C@H](CCC(=O)*)[C@H]1CC[C@H]2[C@@H]3[C@H](O)C[C@@H]4C[C@H](O)CC[C@]4(C)[C@H]3C[C@H](O)[C@]12C; Deoxycholoyl = C[C@H](CCC(=O)*)[C@H]1CC[C@H]2[C@@H]3CC[C@@H]4C[C@H](O)CC[C@]4(C)[C@H]3C[C@H](O)[C@]12C; Lithocholoyl = C[C@H](CCC(=O)*)[C@H]1CC[C@H]2[C@@H]3CC[C@@H]4C[C@H](O)CC[C@]4(C)[C@H]3CC[C@]12C; Adp = aminoethyldibenzofuranylpropanoic acid, O=C(CCc1cccc2c1oc1c(CCN[*:1])cccc12)[*:2]; iminobiotinyl = N=C1N[C@H]2[C@H](CS[C@H]2CCCCC(=O)*)N1; Tyr(3-I) = N[C@@H](Cc1ccc(O)c(I)c1)C(=O)O; NMeL = CN[C@@H](CC(C)C)C(=O)O; NMeV = CN[C@H](C(=O)O)C(C)C; NANA = N-acetyl neuraminyl; Boc = CC(C)(C)OC(=O)* Bounds are passed on as bounds.

Chain of natural β-amyloid peptide β-AP1-40 (human) (peptide, as listed by the source): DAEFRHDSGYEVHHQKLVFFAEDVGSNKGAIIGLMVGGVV

The first assay concerns the target natural β-amyloid peptide β-AP1-40 (human). Put plainly: cell-based or functional assay.
Consider B1, for which the “% Iext'n; seeded extension assay; 25 mole %” value (shortened to “% Iext'n”) was determined as 87%, the “% Inucl'n; nucleation assay; 33 mole %” value was 100% and the “ΔLag; nucleation assay; 33 mole %” value is more than 5 ratio.
Turning to B2, the “% Inucl'n; nucleation assay; 100 mole %” value was -15% and the “ΔLag; nucleation assay; 100 mole %” value was 1 ratio.
With Deoxycholoyl-LVFFA-OH [DeoxyCA-LVFFA-oh], the “% Iext'n” value stood at 82%, the “% Inucl'n; nucleation assay; 100 mole %” value is -114% and the “ΔLag; nucleation assay; 100 mole %” value is 3 ratio.
With Lithocholoyl-LVFFA-OH [LithoCA-LVFFA-oh], the “% Iext'n” value was 0%, the “% Inucl'n; nucleation assay; 100 mole %” value was -229% and the “ΔLag; nucleation assay; 100 mole %” value turned out to be 2.8 ratio.
Regarding B3, the “% Inucl'n; nucleation assay; 100 mole %” value was determined as 0% and the “ΔLag; nucleation assay; 100 mole %” value came to 1 ratio.
For Cholyl-LVF[Tyr(3-I)]A-OH [CA-LVF(IY)A-oh] the same measures were 95% and more than 5 ratio.
The matching figures for B4: 40% and 1.6 ratio.
As to B5, the “% Iext'n” value amounted to 7%, the “% Inucl'n; nucleation assay; 100 mole %” value was -33% and the “ΔLag; nucleation assay; 100 mole %” value was determined as 2.2 ratio.
The matching figures for B6: 89%, 100% and more than 5 ratio.
In the case of B7, the “% Iext'n” value worked out at 75%, the “% Inucl'n; nucleation assay; 100 mole %” value stood at 33% and the “ΔLag; nucleation assay; 100 mole %” value was found to be 4.1 ratio.
B8: the “% Iext'n” value is 0%, the “% Inucl'n; nucleation assay; 100 mole %” value is -75% and the “ΔLag; nucleation assay; 100 mole %” value was 1.4 ratio.
The matching figures for B9: 7%, -29% and 1.8 ratio.
Turning to Cholyl-[dL][dV][dF][dF][dA]-OH [CA-LVFFA-oh (all D amino acids)], the “% Inucl'n; nucleation assay; 100 mole %” value worked out at 27% and the “ΔLag; nucleation assay; 100 mole %” value came to 2.8 ratio.
Boc-LVFFA-OH [t-Boc-LVFFA-oh]: the “% Inucl'n; nucleation assay; 100 mole %” value was -5% and the “ΔLag; nucleation assay; 100 mole %” value amounted to 3 ratio.

For the next assay the target is unchanged. The assay can be described thus: cell-based or functional assay. The source holds these as a separate data set.
On to iminobiotinyl-DAEFRHDSGYEVHHQ [iminobiotinyl-Aβ1-15], for which the “% Inhibition of Plateau; nucleation assay; 100 mole %” value (“% Inhibition of Plateau” below) was approximately 0% and the “Fold Increase in Lag Time; nucleation assay; 100 mole %” value (from here on “Fold Increase in Lag Time … 100 mole %”) was found to be 1.2 fold.
For the molecule iminobiotinyl-HDSGYEVHHQKLVFF [iminobiotinyl-Aβ6-20], the “% Inhibition of Plateau” value is 44% and the “Fold Increase in Lag Time … 100 mole %” value came out at 1.6 fold.
Take Cholyl-DAEFRHDSGYEVHHQ [cholyl-Aβ1-15]: the “% Inhibition of Plateau” value was found to be 100% and the “Fold Increase in Lag Time … 100 mole %” value was more than 4.5 fold.
As to iminobiotinyl-EVHHQKLVFFAEDVG [iminobiotinyl-Aβ11-25], the “% Inhibition of Plateau” value turned out to be 40% and the “Fold Increase in Lag Time … 100 mole %” value was found to be 1.2 fold.
As to Cholyl-SNKGAIIGLMVGGVV [cholyl-Aβ26-40], the “% Inhibition of Plateau” value is 87% and the “Fold Increase in Lag Time … 100 mole %” value is more than 4.5 fold.
For Cholyl-AEDVGSNKGAIIGLM [cholyl-Aβ21-35], the “% Inhibition of Plateau” value was determined as 51% and the “Fold Increase in Lag Time … 100 mole %” value came out at 1.6 fold.
Take Cholyl-EVHHQKLVFFAEDVG [cholyl-Aβ11-25]: the “% Inhibition of Plateau” value was approximately 0% and the “Fold Increase in Lag Time … 100 mole %” value stood at 1.5 fold.
For {NANA}-SNKGAIIGLMVGGVV [NANA-Aβ26-40] the same measures were approximately 0% and 1.3 fold.
As to iminobiotinyl-AEDVGSNKGAIIGLM [iminobiotinyl-Aβ21-35], the “% Inhibition of Plateau” value amounted to 66% and the “Fold Increase in Lag Time … 100 mole %” value was approximately 1 fold.
The matching figures for {NANA}-KLVFFAEDVGSNKGA [NANA-Aβ16-30]: approximately 0% and approximately 1 fold.
The matching figures for {NANA}-HDSGYEVHHQKLVFF [NANA-Aβ6-20]: 64% and 1.3 fold.
For Cholyl-KLVFFAEDVGSNKGA [cholyl-Aβ16-30] the same measures were 100% and more than 4.5 fold.
Regarding iminobiotinyl-KLVFFAEDVGSNKGA [iminobiotinyl-Aβ16-30], the “% Inhibition of Plateau” value was determined as 55% and the “Fold Increase in Lag Time … 100 mole %” value came out at 1.2 fold.
Regarding {NANA}-DAEFRHDSGYEVHHQ [NANA-Aβ1-15], the “% Inhibition of Plateau” value is approximately 0% and the “Fold Increase in Lag Time … 100 mole %” value was approximately 1 fold.
For {NANA}-AEDVGSNKGAIIGLM [NANA-Aβ21-35] the same measures were 53% and approximately 1 fold.

For the origin of these results see patent US7658917 (PRAECIS PHARMACEUTICALS, dated 2010).
